{"source": "paper doi:10.1101/2021.02.07.430181", "test_in_all_cases": "SAXS", "key": {"[1]": {"target": "TrK13-A578S (truncated and strep-tagged recombinant PfKelch13 with A578S) (P. falciparum 3D7)"}, "[2]": {"target": "TrK13-C580Y (truncated and strep-tagged recombinant PfKelch13 with C580Y) (P. falciparum 3D7)"}, "[3]": {"target": "TrK13-R539T (truncated and strep-tagged recombinant PfKelch13 with R539T) (P. falciparum 3D7)"}, "[4]": {"target": "TrK13-WT (truncated and strep-tagged recombinant PfKelch13, wild type) (P. falciparum 3D7)"}}}
{"substance": "TrK13-A578S (truncated and strep-tagged recombinant PfKelch13 with A578S) (domain or fragment)", "values": [{"measurement": "stoichiometry N", "setting": "[1]", "result": 6}]}
{"substance": "TrK13-C580Y (truncated and strep-tagged recombinant PfKelch13 with C580Y) (domain or fragment)", "values": [{"measurement": "stoichiometry N", "setting": "[2]", "result": 6}]}
{"substance": "TrK13-R539T (truncated and strep-tagged recombinant PfKelch13 with R539T) (domain or fragment)", "values": [{"measurement": "stoichiometry N", "setting": "[3]", "result": 6}]}
{"substance": "TrK13-WT (truncated and strep-tagged recombinant PfKelch13, wild type) (domain or fragment)", "values": [{"measurement": "stoichiometry N", "setting": "[4]", "result": 6}]}
